In the Human Domainome abundance scans (Beltran et al. 2025):
± gives the uncertainty stated by the source.

B1: Triacylglycerol hydrolase DDHD2, residues 389 to 447; numbered along this chain, O94830 (parent)
chain: TLEEDLKKLQLSEFFDIFEKEKVDKEALALCTDRDLQEIGIPLGPRKKILNYFSTRKNS

Variants of: B1
Assay: abundance fitness (aPCA) (normalised: wild type 0, dead -1); higher = more abundant; growth selection in yeast, the domain comes from the species named
Conditions: Homo sapiens

Variant	abundance fitness
TLEEDMKKLQLSEFFDIFEKEKVDKEALALCTDRDLQEIGIPLGPRKKILNYFSTRKNS [L6M]	-0.208 ± 0.12
TLEEDLKKLQLSEFFDIFEKEKVDKEALALCTDRDLQEIDIPLGPRKKILNYFSTRKNS [G40D]	-0.572 ± 0.11
TLEEDLKKLQLSEFFDIFEKEKVDKEALALCTDRDLQEIGDPLGPRKKILNYFSTRKNS [I41D]	-0.384 ± 0.15
TLEEDLKKLQLSEFFDIFEKEKVDKEALALCTDRQLQEIGIPLGPRKKILNYFSTRKNS [D35Q]	0.271 ± 0.088
TLEEDLKKLQLSEFFDIFEKEKVDKEALALCTDRDLQEIGIPLGPRKKILNYFSTRMNS [K57M]	0.067 ± 0.092
TLVEDLKKLQLSEFFDIFEKEKVDKEALALCTDRDLQEIGIPLGPRKKILNYFSTRKNS [E3V]	-0.454 ± 0.064
TLEEDLKKLQLSEFFDIFEKEKVDKEALALCTDRDLQEIGIPLGPRKKILNYFSTPKNS [R56P]	0.084 ± 0.093
TLEEDLKKLQLSEFFDIFEKEKVDKEALALCTDRDLQEIGIPLGPRKKILNYFSTWKNS [R56W]	-0.1 ± 0.098
TLEEDLKKLQLSEFFDIFEKEKVDKEALALCTDRDLQEIGIPLGPRKKILNYFQTRKNS [S54Q]	0.055 ± 0.098
TLEEDLKKLQLSEFFDIFEKEKVDKEALALCTDRDLQEIGIPLGPRKKILNYFSHRKNS [T55H]	-0.146 ± 0.14
TLEEDLKKLQLSEFFDIFEKEKVDKEALALCTDRDLQEIGIPLGPRKKILNYFSLRKNS [T55L]	-0.072 ± 0.073
TLEEDLKKLQLSEFFDIFEKEKVDKEALALCTDRDLQEIGIPLFPRKKILNYFSTRKNS [G44F]	-0.151 ± 0.053
TLEEDLKKLQLSEFFDIFEKEKVDKEADALCTDRDLQEIGIPLGPRKKILNYFSTRKNS [L28D]	-0.196 ± 0.12
TLEEDLKKLQLSEFFDIFVKEKVDKEALALCTDRDLQEIGIPLGPRKKILNYFSTRKNS [E19V]	0.049 ± 0.065
TLEEDLKKLQLSEFFDIEEKEKVDKEALALCTDRDLQEIGIPLGPRKKILNYFSTRKNS [F18E]	-0.508 ± 0.15
TLEEDLKKLQLSEFFDIAEKEKVDKEALALCTDRDLQEIGIPLGPRKKILNYFSTRKNS [F18A]	-0.134 ± 0.074
TLEEDLKKLQLSEFFDIFEKEKVDKEALALYTDRDLQEIGIPLGPRKKILNYFSTRKNS [C31Y]	0.626 ± 0.11
TLEEDLKKLQLSEFFDIFEKEKVDKEALALGTDRDLQEIGIPLGPRKKILNYFSTRKNS [C31G]	-0.294 ± 0.059
TLEEDLKKLQLSEFFDIFEKEKVDKEALALCTDRDCQEIGIPLGPRKKILNYFSTRKNS [L36C]	-0.363 ± 0.11
TLEEDLKKLQLSEFFDIFEKEKVDKEALALCTDRDSQEIGIPLGPRKKILNYFSTRKNS [L36S]	-0.293 ± 0.07
TLEEDLKKLQLSEFFDIFEKEKVDKEALALCTDRDIQEIGIPLGPRKKILNYFSTRKNS [L36I]	-0.465 ± 0.11
TLEEDLKKLQLSEFFDIFEFEKVDKEALALCTDRDLQEIGIPLGPRKKILNYFSTRKNS [K20F]	-0.524 ± 0.15
TQEEDLKKLQLSEFFDIFEKEKVDKEALALCTDRDLQEIGIPLGPRKKILNYFSTRKNS [L2Q]	-0.65 ± 0.12

Variant	abundance fitness
TFEEDLKKLQLSEFFDIFEKEKVDKEALALCTDRDLQEIGIPLGPRKKILNYFSTRKNS [L2F]	-0.269 ± 0.091
TIEEDLKKLQLSEFFDIFEKEKVDKEALALCTDRDLQEIGIPLGPRKKILNYFSTRKNS [L2I]	-0.017 ± 0.094
TKEEDLKKLQLSEFFDIFEKEKVDKEALALCTDRDLQEIGIPLGPRKKILNYFSTRKNS [L2K]	-0.426 ± 0.11
TLEEDLKKLQLSEFFDIFEKEKVDREALALCTDRDLQEIGIPLGPRKKILNYFSTRKNS [K25R]	-0.053 ± 0.06
TLEEDLKKLQLSEFFDIFEKEKVDVEALALCTDRDLQEIGIPLGPRKKILNYFSTRKNS [K25V]	0.027 ± 0.07
TLEEDLKKLQLSEFFDIFEKEKVDHEALALCTDRDLQEIGIPLGPRKKILNYFSTRKNS [K25H]	0.159 ± 0.15
TLEEDLKKLQLSEFFDIFEKEKVDIEALALCTDRDLQEIGIPLGPRKKILNYFSTRKNS [K25I]	-0.041 ± 0.14
TLEEDLKKLQLSEFFDIFEKEKVDFEALALCTDRDLQEIGIPLGPRKKILNYFSTRKNS [K25F]	-0.078 ± 0.14
TLEEDLKKLQLSEFFDIFEKEKVDLEALALCTDRDLQEIGIPLGPRKKILNYFSTRKNS [K25L]	0.03 ± 0.072
TLEEDLKKLQLSEFFDIFEKEKVDKEALALCTDRDLQEIGIPLGPRKPILNYFSTRKNS [K48P]	-0.494 ± 0.12
TLEEDLKKLQLSEFFDIFEKEKVDKEALALCTDRDLQEIGIPLGPRKGILNYFSTRKNS [K48G]	-0.698 ± 0.079
TLEEDLKKLQLSEFFDIFEKEKVDKEALALCTDRDLQEIGIPLGPRKIILNYFSTRKNS [K48I]	0.104 ± 0.12
TLEEDLKKLQLSEFFDIFEKEKVDKEALALCTDRDLQEIGIPLGPRKKILNYFSTRKMS [N58M]	0.208 ± 0.12
TLEEDLKKLQLSEFFDIFEKEKVDKEALALCTDRDLQEIGIPLGPRKKILNYFSTRKCS [N58C]	-0.252 ± 0.15
TLEEDLKKLQLSEFFDIFEKEKVDKEALALCTNRDLQEIGIPLGPRKKILNYFSTRKNS [D33N]	-0.367 ± 0.1
TLEEDLKKLQLSEFFDIFEKEKVDKEALALCTPRDLQEIGIPLGPRKKILNYFSTRKNS [D33P]	-0.659 ± 0.11
TLEEDLKKLQLSEFFDIFEKEKVDKEALALCTRRDLQEIGIPLGPRKKILNYFSTRKNS [D33R]	-0.576 ± 0.078
TLEEDLKKLQLSEFFDIFEKEKVDKEALALCTFRDLQEIGIPLGPRKKILNYFSTRKNS [D33F]	-0.609 ± 0.12
TLEEDLKKLQLSLFFDIFEKEKVDKEALALCTDRDLQEIGIPLGPRKKILNYFSTRKNS [E13L]	-0.608 ± 0.11
TLEEDLKKLQLSEFFDIFEKEKVDKEALALCTDRDLQEIGIPLGPQKKILNYFSTRKNS [R46Q]	-0.243 ± 0.12
TLEEDLKKLQLSEFFDIFEKEKVDKEALALCTDRDLQEIGIPLGPYKKILNYFSTRKNS [R46Y]	-0.848 ± 0.17
TLEEDLKKLQLSEFFDIFEKEKVDKEALALCTDRDLQEIGIPLGPVKKILNYFSTRKNS [R46V]	-0.52 ± 0.068
